Results from PMC4301919, “Helical Defects in MicroRNA Influence Protein Binding by TAR RNA Binding Protein”.

Key:
TRBP-ΔC-RBD2-Null [1] = biological target: T1, TRBP-ΔC-RBD2-Null (UniProt Q15633-2 9-215, K150A;K189A;K190A); experiment: EMSA; apparent Kd; nH 2.0; 50 mM sodium cacodylate pH 7.0, 50 mM potassium glutamate, 5% glycerol; EMSA 0.5 pM RNA, 30 min at room temperature, gel 0.25X TBE at 10 C; CD at 10 C with 5-15 uM RNA; details: protein: recombinant; label: 5'-32P top strand; imperfect duplex with U-bulge and A-A mismatch
T1 sequence: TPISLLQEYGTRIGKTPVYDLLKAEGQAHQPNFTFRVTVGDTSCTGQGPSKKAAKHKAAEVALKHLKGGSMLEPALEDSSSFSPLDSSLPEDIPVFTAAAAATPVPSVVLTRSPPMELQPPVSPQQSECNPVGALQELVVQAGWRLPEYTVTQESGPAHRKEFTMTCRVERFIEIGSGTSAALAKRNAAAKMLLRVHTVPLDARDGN

TRBP-ΔC-RBD1-Null [2] = biological target: T2, TRBP-ΔC-RBD1-Null (UniProt Q15633-2 9-215, K23A;K59A;K60A); experiment: EMSA; apparent Kd; nH 3.0; 50 mM sodium cacodylate pH 7.0, 50 mM potassium glutamate, 5% glycerol; EMSA 0.5 pM RNA, 30 min at room temperature, gel 0.25X TBE at 10 C; CD at 10 C with 5-15 uM RNA; details: protein: recombinant; label: 5'-32P top strand (EMSA); blunt
T2 sequence: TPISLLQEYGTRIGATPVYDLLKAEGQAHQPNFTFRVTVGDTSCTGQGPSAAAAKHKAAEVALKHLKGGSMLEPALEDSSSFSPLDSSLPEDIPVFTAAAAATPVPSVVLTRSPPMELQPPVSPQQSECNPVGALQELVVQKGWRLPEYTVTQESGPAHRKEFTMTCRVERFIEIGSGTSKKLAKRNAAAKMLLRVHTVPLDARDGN

TRBP-ΔC-RBD2-Null [3] = biological target: T1, TRBP-ΔC-RBD2-Null; experiment: EMSA; apparent Kd; nH 3.4; 50 mM sodium cacodylate pH 7.0, 50 mM potassium glutamate, 5% glycerol; EMSA 0.5 pM RNA, 30 min at room temperature, gel 0.25X TBE at 10 C; CD at 10 C with 5-15 uM RNA; details: protein: recombinant; label: 5'-32P top strand (EMSA); blunt
TRBP-ΔC-RBD1-Null [4] = biological target: T2, TRBP-ΔC-RBD1-Null; experiment: EMSA; apparent Kd; nH 3.1; 50 mM sodium cacodylate pH 7.0, 50 mM potassium glutamate, 5% glycerol; EMSA 0.5 pM RNA, 30 min at room temperature, gel 0.25X TBE at 10 C; CD at 10 C with 5-15 uM RNA; details: protein: recombinant; label: 5'-32P top strand (EMSA); blunt
TRBP-ΔC-RBD2-Null [5] = biological target: T1, TRBP-ΔC-RBD2-Null; experiment: EMSA; apparent Kd; nH 3.2; 50 mM sodium cacodylate pH 7.0, 50 mM potassium glutamate, 5% glycerol; EMSA 0.5 pM RNA, 30 min at room temperature, gel 0.25X TBE at 10 C; CD at 10 C with 5-15 uM RNA; details: protein: recombinant; label: 5'-32P top strand (EMSA); blunt

B1: miR-16-1/miR-16-1* (dsRNA)
RNA 1: UAGCAGCACGUAAAUAUUGGCG
RNA 2: CCAGUAUUAACUGUGCUGCUGAA
Kd (TRBP-ΔC-RBD2-Null [1]): 900 ± 100 nM

B2: ds33 (dsRNA)
RNA 1: GGUCAGCAGUGCCUUAGCAGCACGUAAAUAUGG
RNA 2: CCAUAUUUACGUGCUGCUAAGGCACUGCUGACC
Kd (TRBP-ΔC-RBD1-Null [2]): 1220 ± 70 nM | Kd (TRBP-ΔC-RBD2-Null [3]): 440 ± 50 nM

B3: ds22 (dsRNA)
RNA 1: GUCAGCAGUGCCUUAGCAGCAC
RNA 2: GUGCUGCUAAGGCACUGCUGAC
Kd (TRBP-ΔC-RBD1-Null [4]): 2290 ± 80 nM | Kd (TRBP-ΔC-RBD2-Null [5]): 340 ± 10 nM
